Common to all, as to assay: cell-based or functional assay
In experiment [1] the target is T1, Kappa opioid receptor (KOR) (Homo sapiens (Human), UniProt P41145 1-380).
The target in experiment [2] is Delta opioid receptor (DOR).
Experiment [3] concerns the target Mu opioid receptor (MOR).
Experiment [4] concerns the target T1, Kappa opioid receptor (KOR). The source holds these as a separate data set.
The target of experiment [5] is Delta opioid receptor (DOR). This is another data set of the same source.
For experiment [6], the target named is Mu opioid receptor (MOR). This is another data set of the same source.
Mu opioid receptor (MOR), sequence (P35372 whole entry): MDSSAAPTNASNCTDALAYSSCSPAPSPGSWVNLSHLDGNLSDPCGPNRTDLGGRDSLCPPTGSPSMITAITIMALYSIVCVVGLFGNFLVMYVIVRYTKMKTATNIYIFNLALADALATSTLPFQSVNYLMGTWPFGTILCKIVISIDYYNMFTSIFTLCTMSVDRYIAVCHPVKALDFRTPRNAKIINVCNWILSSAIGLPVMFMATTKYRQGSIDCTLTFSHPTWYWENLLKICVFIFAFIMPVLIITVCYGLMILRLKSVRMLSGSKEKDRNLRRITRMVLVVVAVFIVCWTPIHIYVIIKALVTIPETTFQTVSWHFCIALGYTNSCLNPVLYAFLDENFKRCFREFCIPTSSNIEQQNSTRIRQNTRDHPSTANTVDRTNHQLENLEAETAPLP

Square brackets hold non-standard residues; d marks the D form. Phe(4-Cl) = N[C@@H](Cc1ccc(Cl)cc1)C(=O)O; Sar = CNCC(=O)O

The values below come from patent US20240301023A1 (PREVECEUTICAL MEDICAL, published 2024).

T1 sequence (P41145 whole entry, form in doubt): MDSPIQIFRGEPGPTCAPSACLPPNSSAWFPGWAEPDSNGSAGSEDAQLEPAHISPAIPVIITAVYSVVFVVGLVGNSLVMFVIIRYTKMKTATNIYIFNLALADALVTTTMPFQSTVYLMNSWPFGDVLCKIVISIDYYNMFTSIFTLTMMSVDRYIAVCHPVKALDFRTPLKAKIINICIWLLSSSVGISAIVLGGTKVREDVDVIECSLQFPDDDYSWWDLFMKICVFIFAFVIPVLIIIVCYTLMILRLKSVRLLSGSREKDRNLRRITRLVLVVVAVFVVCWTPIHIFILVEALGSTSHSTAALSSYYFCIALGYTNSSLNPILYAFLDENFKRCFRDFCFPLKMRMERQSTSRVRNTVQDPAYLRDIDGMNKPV

With H-Y[Sar][Phe(4-Cl)]LR[dR]-NH2 [SEQ ID NO. 11: NH2-Tyr-Sar-(4-Cl)Phe-Leu-Arg-DArg-NH2], the “Activity (EC50, nM), cAMP assay” value in experiment [1] is 6.1 nM; in experiment [2], more than 10000 nM; in the experiment with Mu opioid receptor (MOR) [3], more than 10000 nM. Further, the entries for the “cAMP assay (ALPHAScreen), result at 1 µM peptide” value (in experiment [4]; in experiment [5]; with Mu opioid receptor (MOR) [6]) were 27.7, -1.18 and -0.86, respectively. Further, the “cAMP assay (ALPHAScreen), result at 10 µM peptide” value amounted to 34 in experiment [4], 4.27 in experiment [5] and 1.37 in the experiment with Mu opioid receptor (MOR) [6].
